Results on one substance are retold here after article PMC7857489.

In test [1] the target is MinD (E. coli) (UniProt P0AEZ3).
For another test, the target named is FL-MinD (E. coli) (UniProt P0AEZ3).
In test [2] the target is MinD (E. coli) (UniProt P0AEZ3). This is another data set of the same source.

Chain of ClpXP (P0A6H1 whole entry): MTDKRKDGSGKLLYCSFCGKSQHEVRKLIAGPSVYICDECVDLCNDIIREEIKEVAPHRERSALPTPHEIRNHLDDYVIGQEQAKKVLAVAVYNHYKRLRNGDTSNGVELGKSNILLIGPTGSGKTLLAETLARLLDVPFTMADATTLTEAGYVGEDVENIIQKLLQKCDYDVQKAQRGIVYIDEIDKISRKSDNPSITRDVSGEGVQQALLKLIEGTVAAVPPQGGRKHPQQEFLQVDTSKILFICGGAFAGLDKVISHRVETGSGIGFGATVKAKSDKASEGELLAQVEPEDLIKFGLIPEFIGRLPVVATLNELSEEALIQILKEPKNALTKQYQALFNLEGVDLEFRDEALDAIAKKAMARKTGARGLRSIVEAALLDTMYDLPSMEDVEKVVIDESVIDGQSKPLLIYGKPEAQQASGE
Chain of ClpXP (P0A6G7 15-207): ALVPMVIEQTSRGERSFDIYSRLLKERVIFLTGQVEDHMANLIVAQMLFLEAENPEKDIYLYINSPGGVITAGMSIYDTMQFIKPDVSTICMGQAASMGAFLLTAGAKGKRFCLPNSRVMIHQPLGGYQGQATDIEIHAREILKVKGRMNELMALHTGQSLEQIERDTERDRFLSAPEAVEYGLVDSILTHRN
Chain of MinD (E. coli) (P0AEZ3 whole entry): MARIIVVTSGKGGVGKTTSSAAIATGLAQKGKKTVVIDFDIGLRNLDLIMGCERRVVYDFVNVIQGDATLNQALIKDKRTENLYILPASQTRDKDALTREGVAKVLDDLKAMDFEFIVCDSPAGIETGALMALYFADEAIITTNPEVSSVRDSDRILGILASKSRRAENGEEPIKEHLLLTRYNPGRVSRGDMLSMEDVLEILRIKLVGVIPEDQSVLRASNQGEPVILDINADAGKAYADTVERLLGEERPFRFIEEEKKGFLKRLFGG
Chain of FL-MinD (E. coli) (P0AEZ3 whole entry): as above

For the substance “ClpXP (from UniProt P0A6H1 1-424; P0A6G7 15-207) (complex)”, the loss of full-length MinD (SDS-PAGE, Coomassie) after 3 h with MinD (6 μM), ClpX (1.0 μM), ClpP (1.2 μM) and ATP; no change when ATP or ClpP was omitted with MinD (E. coli) [1] is 45.9%. In addition, the rate of degradation of fluorescent MinD (fluorescent peptides released), MinD 0-16 μM, ClpXP 0.8 μM, ATP 8 mM; rate at the plateau in the test with FL-MinD (E. coli) was found to be 0.08 min⁻¹. For the same substance, in the test with MinD (E. coli) [2], the degradation of MinD (6 μM) by ClpX (0.75 μM), ClpP (0.9 μM) with ATP, SDS-PAGE and densitometry over time is 50%.
